The results in this text go back to US20080181886A1 (Genentech, published 2008).

T1: Murine APRIL (mouse, UniProt Q9D777 105-241, limits assumed)
T1 sequence (looked up): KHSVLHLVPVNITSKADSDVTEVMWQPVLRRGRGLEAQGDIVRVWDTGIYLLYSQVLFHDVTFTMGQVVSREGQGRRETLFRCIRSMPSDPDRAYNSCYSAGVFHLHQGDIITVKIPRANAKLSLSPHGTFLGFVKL

B1: TACI_d2 Y79A (receptor)
chain: SLSCRKEQGKFADHLLRDCISCASICGQHPKQCAYFCENKLR
notes: phage library variant, format as m9
B2: TACI_d2 Y79G (receptor)
chain: B1 chain with A12G
notes: as for B1
B3: TACI_d2 Y79P (receptor)
chain: B1 chain with A12P
notes: as for B1
B4: TACI_d2 R84Y (receptor)
chain: B1 chain with A12Y, R17Y
notes: as for B1
B5: TACI_d2 Y79K (receptor)
chain: B1 chain with A12K
notes: as for B1
B6: TACI_d2 I92A (receptor)
chain: B1 chain with A12Y, I25A
notes: as for B1
B7: TACI_d2 Y79H (receptor)
chain: B1 chain with A12H
notes: as for B1
B8: TACI_d2 F78S (receptor)
chain: B1 chain with F11S, A12Y
notes: as for B1
B9: TACI_d2 Y79F (receptor)
chain: B1 chain with A12F
notes: as for B1
B10: TACI_d2 Y79W (receptor)
chain: B1 chain with A12W
notes: as for B1
B11: TACI_d2 R84A (receptor)
chain: B1 chain with A12Y, R17A
notes: as for B1
B12: TACI_d2 Y79C (receptor)
chain: B1 chain with A12C
notes: as for B1
B13: TACI_d2 Y79T (receptor)
chain: B1 chain with A12T
notes: as for B1
B14: TACI_d2 Y79L (receptor)
chain: B1 chain with A12L
notes: as for B1
B15: TACI_d2 Y79Q (receptor)
chain: B1 chain with A12Q
notes: as for B1
B16: TACI_d2 Y79V (receptor)
chain: B1 chain with A12V
notes: as for B1
B17: TACI_d2 Y79I (receptor)
chain: B1 chain with A12I
notes: as for B1
B18: TACI_d2 Y79N (receptor)
chain: B1 chain with A12N
notes: as for B1
B19: TACI_d2 Y79R (receptor)
chain: B1 chain with A12R
notes: as for B1

Numbering of substitutions follows the chain as printed. Some results are limits rather than exact numbers.

human BAFF, sequence (Q9Y275 82-285 limits assumed): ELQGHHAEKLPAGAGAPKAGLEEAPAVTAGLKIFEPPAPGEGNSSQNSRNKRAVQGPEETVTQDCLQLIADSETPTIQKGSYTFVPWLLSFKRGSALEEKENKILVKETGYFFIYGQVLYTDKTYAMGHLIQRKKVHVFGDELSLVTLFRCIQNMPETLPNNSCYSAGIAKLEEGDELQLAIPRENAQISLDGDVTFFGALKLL

For the first test, the target named is T1, Murine APRIL. As to the kind of experiment: NNS library, phage display.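 Note: ligand versus display occurrence-to-degeneracy ratio and higher means enriched by binding.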 The method, then: (§1) This new phage library was subjected to sorting against either BAFF, APRIL or the display target antibody. After 3 rounds of sorting, approximately 48 clones were picked from each selection and the DNA sequences of the phage clones were determined. […] The normalized F′ value corrects for display bias and is calculated as the percent occurrence to percent degeneracy ratio for ligand selection divided by the percent occurrence to percent degeneracy ratio for display efficiency. Percent occurrence is calculated by dividing the number of times a particular amino acid appeared at a particular position by the total number of amino acids sequenced at that position followed by multiplying by 100. Percent degeneracy is calculated by dividing the degeneracy in code for a particular amino acid divided by the total degeneracy possible at that position followed by multiplying by 100 (e.g., if only A, G and I were selected, total degeneracy possible would be 5).
For B1, the “F' APRIL” value was 0.

Take B2: the “F' APRIL” value came to 0.

For B3, the “F' APRIL” value is 2.

Take B4: the “F' APRIL” value is 0.

For B5, the “F' APRIL” value was determined as 0.

B6: the “F' APRIL” value was 0.

For the molecule B7, the “F' APRIL” value was found to be 0.

With B8, the “F' APRIL” value stood at 0.

For B9, the “F' APRIL” value came to 4.

Consider B10, for which the “F' APRIL” value was determined as 3.

For the molecule B11, the “F' APRIL” value stood at 2.

B12: the “F' APRIL” value came to 0.

In the case of B13, the “F' APRIL” value turned out to be 0.

Regarding B14, the “F' APRIL” value came out at 0.

With B15, the “F' APRIL” value was found to be 0.

As for B16, the “F' APRIL” value came out at 0.

On to B17, for which the “F' APRIL” value was 4.

As to B18, the “F' APRIL” value stood at 0.

Turning to B19, the “F' APRIL” value turned out to be 0.

The target in another test is human BAFF (human, UniProt Q9Y275 82-285, limits assumed). The test can be described thus: NNS library, phage display.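 Note: ligand versus display occurrence-to-degeneracy ratio and higher means enriched by binding.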 The protocol:
as §1
Regarding B1, the “F' BAFF” value is 0.

Regarding B2, the “F' BAFF” value stood at 0.

For the molecule B3, the “F' BAFF” value came out at 3.

Take B4: the “F' BAFF” value was determined as 1.

On to B5, for which the “F' BAFF” value was found to be 0.

As for B6, the “F' BAFF” value turned out to be 0.

For the molecule B7, the “F' BAFF” value is 0.

Consider B8, for which the “F' BAFF” value is 0.

B9: the “F' BAFF” value was found to be 5.

As to B10, the “F' BAFF” value was 4.

B11: the “F' BAFF” value amounted to 3.

In the case of B12, the “F' BAFF” value came to 0.

For the molecule B13, the “F' BAFF” value worked out at 0.

With B14, the “F' BAFF” value worked out at 1.

On to B15, for which the “F' BAFF” value is 0.

With B16, the “F' BAFF” value came to 2.

As to B17, the “F' BAFF” value amounted to 6.

For B18, the “F' BAFF” value was 0.

On to B19, for which the “F' BAFF” value was 0.

The target in another test is T1, Murine APRIL. As to the kind of experiment: shotgun scan, phage display. From the text: Phage from each of the libraries described above were subjected to rounds of binding selection against APRIL, BAFF, or anti-tag antibody (3C8:2F4 Genentech, Inc.) immobilized on 96-well Nunc Maxisorp immunoplates (Sidhu, 2001). BSA-coated wells were used to determine non-specific background binding. Phage eluted from each target were propagated in E. coli XL1-Blue in the presence of M13K07 helper phage; amplified phage were used for selection against the same target in the […] round. […] Enrichment was calculated from the ratio of the phage titer eluted from the target-coated wells to the phage titer eluted from the BSA-coated wells. Individual clones from each library and selection target were then grown in a 96-well format in 400 ul of 2YT medium supplemented with carbenicillin and KO7 helper phage. […] Sequences of acceptable quality were translated and aligned. For APRIL-binding, 71, 40, and 54 sequences were analyzed from libraries one, two and three, respectively. For BAFF-binding, 70, 50, and 53 sequences were analyzed for libraries one, two and three, respectively. For the display selection, a minimum of 47 sequences were analyzed for each library. […] F values describe the effect of mutation on target binding, while accounting for differences in display efficiencies, with values >1 representing deleterious mutations and those <1 representing favorable mutations.
Take B1: the “F (APRIL)” value is > 21.

In the case of B6, the “F (APRIL)” value came out at 11.

In the case of B8, the “F (APRIL)” value was > 66.

With B11, the “F (APRIL)” value was 1.1.
